The values below come from patent US20220235135A1 (COUNCIL OF THE QUEENSLAND INSTITUTE OF MEDICAL RESEARCH, published 2022).

Residue numbers refer to the chain shown, from its start.

The target of this assay is T1, Human GAL9 protein (Galectin-9) (human, UniProt O00182 1-355).
T1 construct: Bought His-tagged protein; also called hGAL9; Human Gal9 His-tag (Acro Biosystems Cat #LG9-H5244)
Description: Octet BLI, IgG1 on biosensor, GAL9 analyte dilution series, global fit (monovalent affinity).
Description: To measure qualitative binding affinity in the GAL9 binder discovery campaigns, IgG1 reformatted binders were immobilized to a biosensor on an Octet (Pall ForteBio) biolayer interferometer.
Soluble GAL9 antigen was then added to the system and binding measured. […] Octet kinetic analysis software was used to calculate the kinetic and equilibrium binding constants based on the rate of association and dissociation curves. Analysis was performed globally (global fit) where kinetic constants were derived simultaneously from all analyte concentration included in the experiment.

T1 sequence (O00182 whole entry): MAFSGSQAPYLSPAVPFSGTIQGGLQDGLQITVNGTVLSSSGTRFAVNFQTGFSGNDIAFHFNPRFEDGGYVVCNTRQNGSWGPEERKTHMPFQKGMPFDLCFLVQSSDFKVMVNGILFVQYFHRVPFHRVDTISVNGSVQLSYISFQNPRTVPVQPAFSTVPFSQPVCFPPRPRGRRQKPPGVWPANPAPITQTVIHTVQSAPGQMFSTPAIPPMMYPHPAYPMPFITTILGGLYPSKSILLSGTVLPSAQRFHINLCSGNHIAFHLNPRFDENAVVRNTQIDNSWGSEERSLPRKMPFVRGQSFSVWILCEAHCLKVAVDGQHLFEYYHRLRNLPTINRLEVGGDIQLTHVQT

B1: P9-10 (antibody, human IgG1, kappa, V domains shown)
VH: EVQLVESGGGLVQPGGSLRLSCAASGFTFDYYVIHWVRQAPGKGLEWVAAIDSYWGDTYYADSVKGRFTISADTSKNTAYLQMNSLRAEDTAVYYCARFYFYGFDYWGQGTLVTVSS
VL: DIQMTQSPSSLSASVGDRVTITCRASQSVSSAVAWYQQKPGKAPKLLIYSASSLYSGVPSRFSGSRSGTDFTLTISSLQPEDFATYYCQQYSWSLWTFGQGTKVEIKR
notes: bivalent monospecific native human full-length IgG1; also called ABS clone P9-10
B1: binding was characterised by a dissociation constant (Kd) of 5.77 nM.

B2: P9-28 (antibody, human IgG1, kappa, V domains shown)
VH: EVQLVESGGGLVQPGGSLRLSCAASGFTFGFYYIHWVRQAPGKGLEWVAFIDPHGGSTYYADSVKGRFTISADTSKNTAYLQMNSLRAEDTAVYYCARLSYPGVLDYWGQGTLVTVSS
VL: B1 VL with Y91G, S92Y, W93S, S94T, W96V
notes: bivalent monospecific native human full-length IgG1; also called ABS clone P9-28; α-GAL9 (P9-28)
The molecule B2 came in with a Kd of 3.36 nM.

B3: P9-16 (antibody, human IgG1, kappa, V domains shown)
VH: EVQLVESGGGLVQPGGSLRLSCAASGFTFSYYWIHWVRQAPGKGLEWVADIYPSSGYTYYADSVKGRFTISADTSKNTAYLQMNSLRAEDTAVYYCARGWYAAYGMDYWGQGTLVTVSS
VL: B1 VL with S92A, W93L, S94R, L95P, W96L
notes: bivalent monospecific native human full-length IgG1; also called ABS clone P9-16
With B3, the Kd was 2.87 nM.

B4: P9-22 (antibody, human IgG1, kappa, V domains shown)
VH: B3 VH with Y31S, W33Y, D50A, S54F, Y57G, W100Y, A102V, A103Y, Y104V, G105V
VL: B1 VL with S92K, W93S, L95P
notes: bivalent monospecific native human full-length IgG1; also called ABS clone P9-22; α-GAL9 (P9-22)
For the molecule B4, the dissociation constant Kd was 4.85 nM.

B5: P9-32 (antibody, human IgG1, kappa, V domains shown)
VH: EVQLVESGGGLVQPGGSLRLSCAASGFTFSAYWIHWVRQAPGKGLEWVALIGPDGGYTYYADSVKGRFTISADTSKNTAYLQMNSLRAEDTAVYYCARQASRGLDYWGQGTLVTVSS
VL: B1 VL with Y91W, W93S, S94P, W96H
notes: bivalent monospecific native human full-length IgG1; also called ABS clone P9-32
B5: the Kd was 1.08 nM.

B6: P9-18 (antibody, human IgG1, kappa, V domains shown)
VH: B1 VH with D30S, Y31W, D52Y, S53P, W55H, G56S, D57K, F99G, F101W, F104M
VL: B1 VL with S92T, W93D, S94A, L95P
notes: the murine IgG backbones were used only in vivo; also called ABS clone P9-18; Clone 18
Molecule B6 returned a Kd of 6.24 nM.

B7: P9-15 (antibody, human IgG1, kappa, V domains shown)
VH: EVQLVESGGGLVQPGGSLRLSCAASGFTFRYYWIHWVRQAPGKGLEWVAAIFPSGGITTYADSVKGRFTISADTSKNTAYLQMNSLRAEDTAVYYCARGWPWGLDYWGQGTLVTVSS
VL: B1 VL with Y91R, S92D, W93R, L95P, W96Y
notes: bivalent monospecific native human full-length IgG1; also called ABS clone P9-15; Clone 15
B7: the Kd was 2.21 nM.

For orientation: Kd means the concentration at which binding is half-saturated.
